Measurements from paper PMC4100210 (Nature communications, 2014).
Ends that are not written are not given here.

Assays:
[1] = target: T1, Dvl2 full-length protein (human, UniProt O14641 1-736); experiment: pull-down
T1 sequence (looked up): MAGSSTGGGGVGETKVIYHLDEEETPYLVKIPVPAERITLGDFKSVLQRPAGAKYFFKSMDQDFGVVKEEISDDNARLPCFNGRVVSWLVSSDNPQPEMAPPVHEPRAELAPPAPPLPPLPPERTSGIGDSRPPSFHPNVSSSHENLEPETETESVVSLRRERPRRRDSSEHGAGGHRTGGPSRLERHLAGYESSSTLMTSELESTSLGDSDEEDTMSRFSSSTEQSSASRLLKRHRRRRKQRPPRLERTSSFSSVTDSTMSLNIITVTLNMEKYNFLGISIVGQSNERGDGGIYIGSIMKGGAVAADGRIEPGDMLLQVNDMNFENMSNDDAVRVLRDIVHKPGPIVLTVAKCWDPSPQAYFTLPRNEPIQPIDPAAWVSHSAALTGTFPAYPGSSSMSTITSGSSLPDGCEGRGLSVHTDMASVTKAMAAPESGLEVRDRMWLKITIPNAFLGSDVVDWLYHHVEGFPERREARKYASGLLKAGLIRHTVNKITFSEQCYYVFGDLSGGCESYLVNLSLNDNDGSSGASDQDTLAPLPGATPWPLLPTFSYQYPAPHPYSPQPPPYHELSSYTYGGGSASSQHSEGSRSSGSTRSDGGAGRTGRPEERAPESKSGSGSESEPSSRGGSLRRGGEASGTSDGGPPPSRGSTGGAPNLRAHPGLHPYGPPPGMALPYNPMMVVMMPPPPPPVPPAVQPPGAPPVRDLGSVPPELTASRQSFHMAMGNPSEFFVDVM

[2] = target: T2, Dvl2 FL F277A/M300A (human, UniProt O14641 1-736, F277A | M300A); experiment: pull-down
T2 sequence (looked up): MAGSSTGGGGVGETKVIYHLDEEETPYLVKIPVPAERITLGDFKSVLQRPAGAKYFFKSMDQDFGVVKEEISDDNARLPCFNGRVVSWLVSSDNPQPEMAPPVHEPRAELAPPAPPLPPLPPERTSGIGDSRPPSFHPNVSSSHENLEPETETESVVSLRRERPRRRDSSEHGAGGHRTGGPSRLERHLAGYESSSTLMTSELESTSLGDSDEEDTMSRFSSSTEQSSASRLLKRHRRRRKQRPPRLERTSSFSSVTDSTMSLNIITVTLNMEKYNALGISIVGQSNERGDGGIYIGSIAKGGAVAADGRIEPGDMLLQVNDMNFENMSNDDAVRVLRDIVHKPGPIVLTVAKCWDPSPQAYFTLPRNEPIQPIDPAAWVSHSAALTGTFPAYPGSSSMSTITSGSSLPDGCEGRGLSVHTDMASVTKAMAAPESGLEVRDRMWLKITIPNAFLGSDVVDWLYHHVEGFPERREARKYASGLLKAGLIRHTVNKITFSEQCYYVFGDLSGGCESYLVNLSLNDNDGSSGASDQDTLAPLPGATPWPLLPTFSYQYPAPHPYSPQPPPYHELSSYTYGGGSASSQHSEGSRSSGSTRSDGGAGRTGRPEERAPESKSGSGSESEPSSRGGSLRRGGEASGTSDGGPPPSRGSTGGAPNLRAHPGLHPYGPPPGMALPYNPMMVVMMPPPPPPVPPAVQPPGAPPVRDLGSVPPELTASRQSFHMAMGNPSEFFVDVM

Binder: {GST}-GKTLQSWRRFYHRLSHSSKGETAV [GST-Fz7 fusion peptide (GST-GKTLQSWRRFYHRLSHSSKGETAV)]
- binding result [1]: binds
- binding result [2]: binds
